“And” between values parts separate entries of the source, which are not always exact repeats. Identical values can stand only once. Values belong to the molecule of their own block, whether it stands above or below them.
Biological target: E. coli 70S ribosomes (nontranslating, salt-washed) (E. coli)
Experiment: co-sedimentation

- Kd: 150 nM
Molecule: SecYHisEG complex, purified, in detergent (from UniProt P0AGA2;P0AG96;P0AG99)

- fold lower affinity than SecY for ribosomes: 5 times lower and 10 times lower
B1: His-tagged YidC, purified (natural protein)
chain: MDSQRNLLVIALLFVSFMIWQAWEQDKNPQPQAQQTTQTTTTAAGSAADQGVPASGQGKLISVKTDVLDLTINTRGGDVEQALLPAYPKELNSTQPFQLLETSPQFIYQAQSGLTGRDGPDNPANGPRPLYNVEKDAYVLAEGQNELQVPMTYTDAAGNTFTKTFVLKRGDYAVNVNYNVQNAGEKPLEISSFGQLKQSITLPPHLDTGSSNFALHTFRGAAYSTPDEKYEKYKFDTIADNENLNISSKGGWVAMLQQYFATAWIPHNDGTNNFYTANLGNGIAAIGYKSQPVLVQPGQTGAMNSTLWVGPEIQDKMAAVAPHLDLTVDYGWLWFISQPLFKLLKWIHSFVGNWGFSIIIITFIVRGIMYPLTKAQYTSMAKMRMLQPKIQAMRERLGDDKQRISQEMMALYKAEKVNPLGGCFPLLIQMPIFLALYYMLMGSVELRQAPFALWIHDLSAQDPYYILPILMGVTMFFIQKMSPTTVTDPMQQKIMTFMPVIFTVFFLWFPSGLVLYYIVSNLVTIIQQQLIYRGLEKRGLHSREKKKS
